Experimental data reported in paper PMC12354568.
Several values for one entry are separate records, joined by “and”; a condition that tells them apart may be missing. Equal values may be shown once.

Target: human neonatal Fc receptor (FcRn), His-tagged (human) (UniProt P55899)
Assay: BLI

Kd | Substance
26.5 to 30.4 nM and 26.3 to 31.7 nM | RGB-19 tocilizumab (proposed biosimilar, IV and SC drug products) (antibody)
19.2 to 34.5 nM and 17.6 to 35.4 nM | RoActemra^® tocilizumab (EU-sourced reference medicinal product, IV and SC) (antibody)
